Assay results as given in PMC10528708.

Target: T1, CHF-1Flu (tomato aspermy virus)
T1 chain: RKRHKLNR
Assay: fluorescence polarization

In the case of CTGCTGCTGCTGCTGCTGCTGCTGCTGCTG (structured_DNA) [d(CTG)10], the Kd is reported as 440 ± 79 nM.
